Assay results as given in the supplement of paper PMC9170038.

System: MS2 coat protein
Assay: apparent KD of MS2 coat protein; designed switch direction (-1 OFF switch, 1 ON switch): -1; higher = weaker reporter binding
Summary of the method: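 Normalised cluster fluorescence was curve-fitted, and each design's median over clusters is its apparent KD. Before this, SNAP-549-labelled MS2 coat protein was titrated from 0.7 or 1.5 nM, doubling to 3 µM, over RNA switches transcribed on Illumina chips by stalled E. coli RNA polymerase. Titrations had no input, 200 uM small-molecule ligand, or an oligonucleotide input, and steps lasted 0.8–1.5 h (lowest) to 10–20 min (highest).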

[1] = input ligand: microRNA oligo, concentration not stated
[2] = Eterna round: R95, input ligand: microRNA oligo, concentration not stated
[3] = Eterna round: R95, input ligand: FMN 200 uM
[4] = Eterna round: R95, input ligand: none

Row | Sequence | apparent KD of MS2 coat protein (input ligand: FMN 200 uM) [nM] | apparent KD of MS2 coat protein [1] [nM] | apparent KD of MS2 coat protein (input ligand: none) [nM] | apparent KD of MS2 coat protein [2] [nM] | apparent KD of MS2 coat protein [3] [nM] | apparent KD of MS2 coat protein [4] [nM]
1 | UAUUGCGAGUGAGGAUAUGACAUGAGGAUCACCCAUGUAAAGGGAGUUGGCUAUAUAGCAAGUUUUCAGAAGGCACUACUGUAU [JR_ExcNG2_Sub007] (Eterna round: R96, puzzle: Exclusion NG 2) | 114 | 48.8 | 66.4 | – | – | –
2 | GGUUAAUGCAAGGAUAUGCUAUUAUUUUAUUUUGCAGAAGGUGCAACAUGAGGAUCACCCAUGUUGGAGGGUUU [JR_E6_Sub025] (puzzle: Exclusion 6) | – | – | – | 18.6 | – | –
3 | GGGCCCGGAGGAUAUACAAUCCCGGGUUGAAAGGCCCGGGUACAUGAGGAUCACCCAUGUAGAAGGCCGGGCCC [-42.3, -39.6 kcal A 24%, 5c bis,0] (Eterna round: R97, puzzle: Exclusion 2) | 20.9 | – | 13.8 | – | – | –
4 | UGUUGUCGCGUAGGAUAUGGCCAACAGGCCCUAGGAUAUGCGAAAGCAGAAGGAGCGCCAACAGGCGAGAAGGACGGGACAACU [pwkr exNG2 2xF7 2xFMN.17] (Eterna round: R96, puzzle: Exclusion NG 2) | 20.6 | 13.6 | 359 | – | – | –
5 | AUAUUACAUGAGGAUCACCCAUGUGAGGAUAUGGAGCGCGACCGCCCGGUCGCGUACACCAGAAGGCGCGGGCG [1st #57] (Eterna round: R97, puzzle: Exclusion 1) | 46.2 | – | 22.3 | – | – | –
6 | AACACUGUAGGAUAUCAUGAACUGGACUUGAGGAUCACCCAAGUGUAUCGUGGAGUGCCGUGAGAAGGACGGAUUA [Erleen] (Eterna round: R97, puzzle: Exclusion 5) | 28.1 | – | 27.2 | – | – | –
7 | GUAGAGUGAGGAUAUACGAGAUCGAAAGAUCGGCGAUCCAAACAUGAGGAUCACCCAUGUAGAAGGCACUCUAC [Eli x2 4.006] (Eterna round: R97, puzzle: Exclusion 2) | 202 | – | 140 | – | – | –
8 | GGUCUUCAAGUCAGGAUAUCGUCUAAUCGAUCUGGCGAGAAGGGACAUGAGGAUCACCCAUGUCGUCUCAUCAG [Ex4 #16] (Eterna round: R97, puzzle: Brourd's mod of Exclusion 4) | 22.7 | – | 17.7 | – | – | –
9 | AGAAGUAGUACCCGAUCCUACAUGAGGAUCACCCAUGUAGCUAGACGUGCACGCGAUGCUCGUCAGACUACCAGAUG [salish99_TOv1_r3_032] (puzzle: Sensor v3, turn-off variant 1) | – | – | – | 144 | 153 | 189
10 | GCUGGGUCAGGAUAUACGAGAUCGAAAGAUCGAAGAUCCGUACAUGAGGAUCACCCAUGUAGAAGGGACUGGGC [ChP 11-04-2015 #7] (puzzle: Exclusion 2) | – | – | – | 19.5 | – | –
11 | AGUGUGUGGCAGGAUAUGCUGUUGAUUGGUGGAGCAGAAGGGUCUACAUGAGGAUCACCCAUGUAAGCGGUUGA [Ex6 #30] (Eterna round: R97, puzzle: Exclusion 6) | 125 | – | 36.5 | – | – | –
12 | AGUACUAACACGGCUGUGUUAGUACAAUAAGCUUGUGAAACAUGAGGAUCACCCAUGUCCUCAUAAGCUCGUCUUAU [salish99_TOv2_r3_078] (puzzle: Sensor v3, turn-off variant 2) | – | – | – | 580 | 18 | 15.6
13 | AGCCGUCUAGGAUAUACAUAAGAUCGGCAGUCUCCGUCGAGACAUGAGGAUCACCCAUGUAGAAGGAGGCGGGA [EX2 A.22] (Eterna round: R97, puzzle: Exclusion 2) | 208 | – | 47.2 | – | – | –
14 | GGGUAGGGAGGAUAUCCAAUAUAUGACAUGAGGAUCACCCAUGUUUCCACUCGUACCUCCGGAGAAGGCCCAUCCC [Ex5 #14] (Eterna round: R97, puzzle: Exclusion 5) | 25.6 | – | 21.4 | – | – | –
15 | AUUACGUCAGGAUAUGCGUGUUAGACAUGUUUAACCUAAGAACAUGAGGAUCACCCAUGUAGAAGGGACGCUCA [Eternabot (L1) Solution 78] (Eterna round: R97, puzzle: Exclusion 2) | 68.9 | – | 64.9 | – | – | –
16 | AAUAAUAAGGAGGAUAUCGUAACCGAAAGGUUACGAGAAGGCCUAACAUGAGGAUCACCCAUGUUCCUCAAUAA [Mat - Exclusion 6 - Eli Mod - D56] (puzzle: Exclusion 6) | – | – | – | 186 | 468 | 389
17 | ACUUAUAGAGGAUAUACAGUUAAUUACAUGAGGAUCACCCAUGUUCUUCAAUGUAUAUAAGUAGAAGGCUAAGAAA [Mat - Exclusion 5 - Eli Mod - D5] (Eterna round: R97, puzzle: Exclusion 5) | 58 | – | 13.5 | – | – | –
18 | UUUAAUUUUUUUUUUUUACAAGCUUUUUGCUCGUCUUAUACAUGAGGAUCACCCAUGUGGGUGGAAGAUAAAUUAUC [JMF 12] (puzzle: Sensor v3, turn-off variant 2) | – | – | – | 75.1 | 113 | 134

Row | Sequence | apparent KD of MS2 coat protein (input ligand: FMN 200 uM) [nM] | apparent KD of MS2 coat protein [1] [nM] | apparent KD of MS2 coat protein (input ligand: none) [nM] | apparent KD of MS2 coat protein [2] [nM] | apparent KD of MS2 coat protein [3] [nM] | apparent KD of MS2 coat protein [4] [nM]
19 | UUGUUGUGUGUAGGAUAUGCAUGUUAUUAUUAUGCAGAAGGACAUGAGGAUCACCCAUGUGUAUUAUUAUUAUAUAUUAUAUAU [Title] (Eterna round: R96, puzzle: Exclusion NG 1) | 21.1 | 13.8 | 22.5 | – | – | –
20 | AGGCUGUCAGGAUAUCUGCGCCGCUGUACGCGGCGUUAUAAAGAGAAGGGACAUGAGGAUCACCCAUGUCCUCA [EX4 B.14] (Eterna round: R97, puzzle: Exclusion 4) | 109 | – | 19.5 | – | – | –
21 | AAGCGCGUAGGAUAUACAUGAGGAUCACCCAUGUGAGGAGGGAGUUGGAGGUGUGGAAGUAGAAGGACGGAGUG [JR_Exclu3_Sub079] (puzzle: Exclusion 3) | – | – | – | 26.9 | – | –
22 | CUGAGGUAGCGGUCCUAUGACAUGAGGAUCACCCAUGUGCCUCGCUACAAGCUUUUUGCUCGUUUUAUGAUUCUCGG [JL Atriat mod 11] (puzzle: Sensor v3, turn-off variant 1) | – | – | – | 90.1 | 71.2 | 95.3
23 | CUCGUGCAGCAAAGCUGUACGAGUACAUGAGGAUCACCCAUGUAGGAUAUGGUACGCAAAGCGUGCUAGAAGGAUAUGUGAAAG [Mat - Exclusion NG 3 - Mod of JL - D89] (Eterna round: R96, puzzle: Exclusion NG 3) | 44.2 | 31.4 | 49.9 | – | – | –
24 | GUGUAGUCAGGAUAUACAUAGGAAGAGAAGAGAAGAUAAGUACAUGAGGAUCACCCAUGUAGAAGGGACAGUGU [Excluse me!! 7 - Jieux - Exclusion 2] (puzzle: Exclusion 2) | – | – | – | 32.1 | – | –
25 | AAAGUUCGAGGAUAUCUACUUAGCUACAUGAGGAUCACCCAUGUUAUCCUCCCGCUGGGAAGAGAAGGCGGUUAAA [Xeonceso] (Eterna round: R96, puzzle: Exclusion 5) | 138 | 27.1 | 34.1 | – | – | –
26 | UAAUUUUUAGUAAGGAUAUCGGUCCCAAGGGACAACGAGAAGGUACAUGAGGAUCACCCAUGUGAUAAAAGAAU [Mod of Zala 5 - Jieux - Brourd's Mod of Exclusion 4] (Eterna round: R97, puzzle: Brourd's mod of Exclusion 4) | 204 | – | 28.8 | – | – | –
27 | AGUACUAACACGAAAGUGUUAGUACAAUAAGCUUGUGAAACAUGAGGAUCACCCAUGUCCUCGUAAGCUCGUCUUAU [salish99_TOv2_r3_048] (puzzle: Sensor v3, turn-off variant 2) | – | – | – | 620 | 40 | 37.7
28 | GGAUCUACUGAGGAUAUUACAUCACCCGAUUGAUAAGAAGGCAGAACAUGAGGAUCACCCAUGUGGGUAGCCAA [Polaris] (Eterna round: R97, puzzle: Exclusion 6) | 36.9 | – | 21 | – | – | –
29 | UAAAAGUGAGGAUAUACAUUAAGGUAAGUCCGGAUGCGAAGACAUGAGGAUCACCCAUGUAGAAGGCACACAAA [Aredge] (puzzle: Exclusion 2) | – | – | – | 32.1 | – | –
30 | GAAAACGUAGGAUAUUAAUACUCAGACAUGAGGAUCACCCAUGUUUGGUGGGUCGGAGAAUGAGAAGGGCGAUGAA [EX5 #14] (Eterna round: R97, puzzle: Exclusion 5) | 82.3 | – | 89.7 | – | – | –
31 | AAAUAGCUAGAGGAUAUCGGAUAGGAUUUACUACGAGAAGGUUAGACAUGAGGAUCACCCAUGUUGUGUUGGGA [EX6 #19] (Eterna round: R97, puzzle: Exclusion 6) | 59.6 | – | 67.9 | – | – | –
32 | UCACAGUGAGGAUAUUUAAAAUCGGAACCAGUUACCCGGAUGAAGAAGGCACAUGAGGAUCACCCAUGUGGACG [Eternabot (L2) Solution 14] (Eterna round: R97, puzzle: Exclusion 4) | 16.7 | – | 15.3 | – | – | –
33 | AAUAAUAAGGAGGAUAUCGUAUCGGAAACGAUACGAGAAGGUCUAACAUGAGGAUCACCCAUGUUCCUCAAUAA [Fiskers Ex 6 - 1] (puzzle: Exclusion 6) | – | – | – | 33.6 | – | –
34 | CCCUCACAUGAGGAUCACCCAUGUCAGGAUAUUCGAGGCGCAAAUACGCCAAAUGCAGGAAGAAGGGACGUGCC [Ususzalaxe] (puzzle: Exclusion 1) | – | – | – | 13.5 | – | –
35 | CCACGACAUGAGGAUCACCCAUGUGAGGAUAUGGCCUGAAAAGCGUGAGCAGUUUCUAUCAGAAGGCGCGUGGG [salish99_ex1_r4_063] (Eterna round: R97, puzzle: Exclusion 1) | 137 | – | 49.4 | – | – | –
